Measured values taken from publication PMC12462478 (Nature Communications, 2025).

Molecular target: human LGR4 (residues 25–833), called full-length LGR4 (human, UniProt Q9BXB1 25-833)
Experiment: cryo-EM structure

B1: RSPO2(FU), FU domain of RSPO2 (residues 37–143) (domain or fragment)
chain: NPICKGCLSCSKDNGCSRCQQKLFFFLRREGMRQYGECLHSCPSGYYGHRAPDMNRCARCRIENCDSCFSKDFCTKCKVGFYLHRGRCFDECPDGFAPLEETMECVE
  stoichiometry N: 1
